Data on four substances can be found in PMC5718816.

For the assay, the target named is IgG-CD4 fusion protein (human) (UniProt P01730). In words: BLI.
Substance “recombinant consensus gp120 of HIV-1 CRF01_AE” displayed a Kd of 0.0184 µM.
In the case of “recombinant gp120 of HIV-1 92UG037.8 (subtype A) (natural protein)” it was 0.00256 µM.
Turning to “recombinant gp120 of HIV-1 93MW965.26 (subtype C) (natural protein)”, the Kd came out at 0.112 µM.
The substance “recombinant gp120 of HIV-1 JR-FL (subtype B) (natural protein)” gave a Kd of 0.0064 µM.
